The MegaScale stability set (Tsuboyama et al. 2023)

B1: EHEE_rd4_0086 (parent)
chain: EIHIRTNGEEQARKVYKMLAKRNYDVKIEQHNGQWVVTAS

Variants of: B1
Test: folding stability dG (cDNA display proteolysis); higher = more stable
Conditions: PBS, room temperature

Row | Variant | folding stability dG [kcal/mol]
1 | EIHIMTNGEEQARKVYKMLAKRNYDVKIEQHNGQWVVTAS [R5M] | 1.98
2 | EIHISTNGEEQARKVYKMLAKRNYDVKIEQHNGQWVVTAS [R5S] | 1.45
3 | EIHIDTNGEEQARKVYKMLAKRNYDVKIEQHNGQWVVTAS [R5D] | 0.471
4 | EIHILTNGEEQARKVYKMLAKRNYDVKIEQHNGQWVVTAS [R5L] | 2.08
5 | EIHICTNGEEQARKVYKMLAKRNYDVKIEQHNGQWVVTAS [R5C] | 2.85
6 | EIHIETNGEEQARKVYKMLAKRNYDVKIEQHNGQWVVTAS [R5E] | 1.34
7 | EIHIHTNGEEQARKVYKMLAKRNYDVKIEQHNGQWVVTAS [R5H] | 1.96
8 | EIHIPTNGEEQARKVYKMLAKRNYDVKIEQHNGQWVVTAS [R5P] | 1.19
9 | EIHIYTNGEEQARKVYKMLAKRNYDVKIEQHNGQWVVTAS [R5Y] | 2.52
10 | EIHIFTNGEEQARKVYKMLAKRNYDVKIEQHNGQWVVTAS [R5F] | 2.36
11 | EIHIQTNGEEQARKVYKMLAKRNYDVKIEQHNGQWVVTAS [R5Q] | 1.52
12 | EIHIGTNGEEQARKVYKMLAKRNYDVKIEQHNGQWVVTAS [R5G] | 0.692
13 | EIHIKTNGEEQARKVYKMLAKRNYDVKIEQHNGQWVVTAS [R5K] | 1.75
14 | EIHIWTNGEEQARKVYKMLAKRNYDVKIEQHNGQWVVTAS [R5W] | 2.43
15 | EIHITTNGEEQARKVYKMLAKRNYDVKIEQHNGQWVVTAS [R5T] | 1.97
16 | EIHIVTNGEEQARKVYKMLAKRNYDVKIEQHNGQWVVTAS [R5V] | 2.32
17 | EIHIITNGEEQARKVYKMLAKRNYDVKIEQHNGQWVVTAS [R5I] | 2.4
18 | EIHIATNGEEQARKVYKMLAKRNYDVKIEQHNGQWVVTAS [R5A] | 1.53
19 | EIHINTNGEEQARKVYKMLAKRNYDVKIEQHNGQWVVTAS [R5N] | 1.18
20 | EIHWRTNGEEQARKVYKMLAKRNYDVKIEQHNGQWVVTAS [I4W] | 1.65
21 | EIHLRTNGEEQARKVYKMLAKRNYDVKIEQHNGQWVVTAS [I4L] | 1.12

Row | Variant | folding stability dG [kcal/mol]
22 | EIHHRTNGEEQARKVYKMLAKRNYDVKIEQHNGQWVVTAS [I4H] | 0.442
23 | EIHVRTNGEEQARKVYKMLAKRNYDVKIEQHNGQWVVTAS [I4V] | 1.46
24 | EIHDRTNGEEQARKVYKMLAKRNYDVKIEQHNGQWVVTAS [I4D] | -0.257
25 | EIHQRTNGEEQARKVYKMLAKRNYDVKIEQHNGQWVVTAS [I4Q] | 0.032
26 | EIHTRTNGEEQARKVYKMLAKRNYDVKIEQHNGQWVVTAS [I4T] | -0.094
27 | EIHGRTNGEEQARKVYKMLAKRNYDVKIEQHNGQWVVTAS [I4G] | -0.953
28 | EIHKRTNGEEQARKVYKMLAKRNYDVKIEQHNGQWVVTAS [I4K] | -0.031
29 | EIHYRTNGEEQARKVYKMLAKRNYDVKIEQHNGQWVVTAS [I4Y] | 2.12
30 | EIHERTNGEEQARKVYKMLAKRNYDVKIEQHNGQWVVTAS [I4E] | -0.06
31 | EIHFRTNGEEQARKVYKMLAKRNYDVKIEQHNGQWVVTAS [I4F] | 2.16
32 | EIHRRTNGEEQARKVYKMLAKRNYDVKIEQHNGQWVVTAS [I4R] | 0.105
33 | EIHMRTNGEEQARKVYKMLAKRNYDVKIEQHNGQWVVTAS [I4M] | 0.855
34 | EIHPRTNGEEQARKVYKMLAKRNYDVKIEQHNGQWVVTAS [I4P] | -0.436
35 | EIHSRTNGEEQARKVYKMLAKRNYDVKIEQHNGQWVVTAS [I4S] | -0.073
36 | EIHNRTNGEEQARKVYKMLAKRNYDVKIEQHNGQWVVTAS [I4N] | -0.203
37 | EIHARTNGEEQARKVYKMLAKRNYDVKIEQHNGQWVVTAS [I4A] | 0.01
38 | EVHIRTNGEEQARKVYKMLAKRNYDVKIEQHNGQWVVTAS [I2V] | 1.42
39 | EFHIRTNGEEQARKVYKMLAKRNYDVKIEQHNGQWVVTAS [I2F] | 2.2
40 | ETHIRTNGEEQARKVYKMLAKRNYDVKIEQHNGQWVVTAS [I2T] | 0.864
41 | EDHIRTNGEEQARKVYKMLAKRNYDVKIEQHNGQWVVTAS [I2D] | 0.01
42 | EKHIRTNGEEQARKVYKMLAKRNYDVKIEQHNGQWVVTAS [I2K] | 0.769

Row | Variant | folding stability dG [kcal/mol]
43 | EHHIRTNGEEQARKVYKMLAKRNYDVKIEQHNGQWVVTAS [I2H] | 0.983
44 | EAHIRTNGEEQARKVYKMLAKRNYDVKIEQHNGQWVVTAS [I2A] | 0.327
45 | EYHIRTNGEEQARKVYKMLAKRNYDVKIEQHNGQWVVTAS [I2Y] | 1.65
46 | ENHIRTNGEEQARKVYKMLAKRNYDVKIEQHNGQWVVTAS [I2N] | 0.024
47 | EEHIRTNGEEQARKVYKMLAKRNYDVKIEQHNGQWVVTAS [I2E] | 0.258
48 | EPHIRTNGEEQARKVYKMLAKRNYDVKIEQHNGQWVVTAS [I2P] | 0.357
49 | EGHIRTNGEEQARKVYKMLAKRNYDVKIEQHNGQWVVTAS [I2G] | -0.001
50 | EWHIRTNGEEQARKVYKMLAKRNYDVKIEQHNGQWVVTAS [I2W] | 2.36
51 | EQHIRTNGEEQARKVYKMLAKRNYDVKIEQHNGQWVVTAS [I2Q] | 0.226
52 | ESHIRTNGEEQARKVYKMLAKRNYDVKIEQHNGQWVVTAS [I2S] | 0.144
53 | ERHIRTNGEEQARKVYKMLAKRNYDVKIEQHNGQWVVTAS [I2R] | 0.978
54 | EMHIRTNGEEQARKVYKMLAKRNYDVKIEQHNGQWVVTAS [I2M] | 1.38
55 | ELHIRTNGEEQARKVYKMLAKRNYDVKIEQHNGQWVVTAS [I2L] | 1.61
56 | EILIRTNGEEQARKVYKMLAKRNYDVKIEQHNGQWVVTAS [H3L] | 2.14
57 | EIVIRTNGEEQARKVYKMLAKRNYDVKIEQHNGQWVVTAS [H3V] | 2.85
58 | EIEIRTNGEEQARKVYKMLAKRNYDVKIEQHNGQWVVTAS [H3E] | 2
59 | EIFIRTNGEEQARKVYKMLAKRNYDVKIEQHNGQWVVTAS [H3F] | 2.2
60 | EIIIRTNGEEQARKVYKMLAKRNYDVKIEQHNGQWVVTAS [H3I] | 2.81
61 | EIAIRTNGEEQARKVYKMLAKRNYDVKIEQHNGQWVVTAS [H3A] | 1.64
62 | EITIRTNGEEQARKVYKMLAKRNYDVKIEQHNGQWVVTAS [H3T] | 2.41
